The source of these data is publication PMC3398199 (Molecular Cell, 2012).

In the test the target is His-tagged human recombinant full-length NEMO (human, UniProt Q9Y6K9 1-419). The experiment in a line: SEC. In general terms: In gel filtration, larger molecules generally elute earlier.
Chain of His-tagged human recombinant full-length NEMO (Q9Y6K9 whole entry): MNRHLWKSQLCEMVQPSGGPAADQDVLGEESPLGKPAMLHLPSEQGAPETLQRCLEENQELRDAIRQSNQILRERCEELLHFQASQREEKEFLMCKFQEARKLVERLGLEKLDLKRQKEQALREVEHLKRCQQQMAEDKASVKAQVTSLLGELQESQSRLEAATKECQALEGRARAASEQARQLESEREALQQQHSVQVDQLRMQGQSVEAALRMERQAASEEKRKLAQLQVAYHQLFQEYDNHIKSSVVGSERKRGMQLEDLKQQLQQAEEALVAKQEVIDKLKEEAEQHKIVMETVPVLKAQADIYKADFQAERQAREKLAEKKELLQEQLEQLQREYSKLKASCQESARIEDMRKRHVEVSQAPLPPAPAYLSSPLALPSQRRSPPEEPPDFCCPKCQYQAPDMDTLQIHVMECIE

B1: recombinant FL-human IκBα (natural protein, UniProt P25963 1-317, looked up)
chain: MFQAAERPQEWAMEGPRDGLKKERLLDDRHDSGLDSMKDEEYEQMVKELQEIRLEPQEVPRGSEPWKQQLTEDGDSFLHLAIIHEEKALTMEVIRQVKGDLAFLNFQNNLQQTPLHLAVITNQPEIAEALLGAGCDPELRDFRGNTPLHLACEQGCLASVGVLTQSCTTPHLHSILKATNYNGHTCLHLASIHGYLGIVELLVSLGADVNAQEPCNGRTALHLAVDLQNPDLVSLLLKCGADVNRVTYQGYSPYQLTWGRPSTRIQQQLGQLTLENLQMLPESEDEESYDTESEFTEFTEDELPYDDCVFGGQRLTL
As to B1, the binding result was “binds”.
